The experiment addresses S protein of the SARS-CoV-2 prototype strain on pseudo-virus (SARS-CoV-2 prototype strain) (UniProt P0DTC2). Put plainly: cell-based or functional assay.

Chain of LY-CoV1404 (antibody) (VH): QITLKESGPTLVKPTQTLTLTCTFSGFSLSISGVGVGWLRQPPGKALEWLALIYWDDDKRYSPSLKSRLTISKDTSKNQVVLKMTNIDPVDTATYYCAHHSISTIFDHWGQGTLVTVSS
Chain of LY-CoV1404 (antibody) (VL): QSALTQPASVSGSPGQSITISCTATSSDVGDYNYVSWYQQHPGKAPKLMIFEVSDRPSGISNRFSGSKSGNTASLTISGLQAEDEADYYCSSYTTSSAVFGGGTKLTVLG

In turn, LY-CoV1404 (antibody) came in with a Neutralization activity (IC50) against pseudo-virus of 1.19 ng/mL.
